Measurements taken from the supplement of paper PMC10567573.
± gives the standard deviation.

Assay: protein stability index of a GFP-peptide fusion (GPS, HEK-293T) (PSI 1-6); higher = more stable
[1] = treatment: DMSO, c terminus: a fixed tail appended
[2] = treatment: MLN4924 1 uM, 8 h, c terminus: a fixed tail appended
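Further: 24-mer peptide tiles fused after GFP, lentivirally expressed, FACS-sorted into six equal bins by GFP/DsRed ratio, decoded by Illumina sequencing, PSI is the read-weighted mean bin number.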

| Sequence | protein stability index [1] | protein stability index [2] | protein stability index (treatment: DMSO, c terminus: native) | protein stability index (treatment: MLN4924 1 uM, 8 h, c terminus: native) |
| --- | --- | --- | --- | --- |
| DIKDDIYDPTYKDKEGPSPKVEYV [SCD] | 4.92 ± 0.14 | 4.68 ± 0.17 | – | – |
| LFAGFLPRIIKAAPSCAIMISTYE [SLC25A39] | 2.8 ± 0.31 | 3.21 ± 0.75 | – | – |
| HTFRATFQEPLYPALRLWEGAISI [TRIM14] | 2.85 ± 0.57 | 2.69 ± 0.71 | – | – |
| KVPESLVRSLRGEEPVPRERDRDP [LURAP1L] | 5.28 ± 0.13 | 5.25 ± 0.33 | – | – |
| VIKYNVNDKFSFHEVKDNYIPVIK [RHOBTB3] | 2.21 ± 0.44 | 2.75 ± 0.34 | – | – |
| LGPESWQQIAMDPEEVKSLDSNGA [BCL2L13] | 5.16 ± 0.16 | 5.24 ± 0.21 | – | – |
| AADDFRLKYENELALRQGVEADIN [KRT15] | 4.77 ± 0.29 | 4.64 ± 0.23 | – | – |
| SCPNGMSAENGLEKSGFSQHQNKS [DLC1] | 4.86 ± 0.17 | 5.06 ± 0.11 | – | – |
| LLRTFDAGEFTGWEKVGSGGFGQV [RIPK4] | 2.43 ± 0.56 | 2.53 ± 0.094 | – | – |
| SAAVRGHPRALPPDARPHRRPHEL [HAGHL] | 4.404 ± 0.036 | 4.47 ± 0.13 | – | – |
| PKYQLFVPQLVTGRCATRAFHRKS [RNF180] | 2.14 ± 0.34 | 2.21 ± 0.28 | – | – |
| DMKAMSPENQEYFEKHRWPPVWYL [RHOBTB2] | 2.47 ± 0.17 | 2.67 ± 0.36 | – | – |
| LPCFNGRVVSWLVSAEGSHPDPAP [DVL3] | 2.64 ± 0.24 | 2.53 ± 0.28 | – | – |
| QVLIKHSADVNARDKNWQTPLHVA [ANKRD44] | 3.15 ± 0.34 | 3.01 ± 0.32 | – | – |
| GLEAPRDLEAKEVTPRTALLTWTE [TNXB] | 3.22 ± 0.4 | 4.95 ± 0.29 | – | – |
| QLLSERFGRGSRTVDLELELQIEL [ARFIP2] | 2.58 ± 0.46 | 2.99 ± 0.94 | – | – |
| GSQAGGSGSAGQYGSDQQHHLGSG [MYOZ1] | 4.94 ± 0.23 | 5.17 ± 0.18 | – | – |
| HHCDDHLSLYQLSLERGTALFAQV [RSAD1] | 2.22 ± 0.66 | 2.03 ± 0.2 | – | – |
| LSEASGGRAENGERSDLEEDNERE [ZC3H15] | 5.53 ± 0.47 | 5.81 ± 0.062 | – | – |
| FPAVTVEVKSSIAGSSTWERYFIP [SLC29A1] | 2.61 ± 0.88 | 2.4 ± 0.28 | – | – |
| LREMLSKKHAAYAWPFYKPVDAEA [BRD3] | 2.54 ± 0.26 | 2.99 ± 0.16 | – | – |
| VFYLWSAIEIFRYSFYMLTCIDMD [HACD3] | 3.13 ± 0.15 | 3.5 ± 0.47 | – | – |
| RGRASGFAGSMFGSVALGPVCPTV [KRT71] | 2.7 ± 0.14 | 2.88 ± 0.28 | – | – |

| Sequence | protein stability index [1] | protein stability index [2] | protein stability index (treatment: DMSO, c terminus: native) | protein stability index (treatment: MLN4924 1 uM, 8 h, c terminus: native) |
| --- | --- | --- | --- | --- |
| KPKKKKEKKEKEKKKKDKEKEKEK [BRD3] | 5.26 ± 0.097 | 5.19 ± 0.14 | – | – |
| GSCGQGRTIRHVYCKTSDGRVVPE [ADAMTSL2] | 3.66 ± 0.31 | 3.57 ± 0.58 | – | – |
| HWDGYSKGVNRKLGRTGLYPSYKV [FUT8] | 2.5 ± 0.32 | 2.53 ± 0.18 | – | – |
| NNVVPIHVPPTTENKPKVQCCQNI [RAB11A] | 4.56 ± 0.15 | 4.57 ± 0.21 | – | – |
| ILIALVGATPSYHWDLAELLPNQS [SLC22A15] | 2.85 ± 0.43 | 2.9 ± 0.75 | – | – |
| NFIGRQWEISDDYPSLQAMGWFNN [CRYBA1] | 2.45 ± 0.18 | 2.32 ± 0.18 | – | – |
| GARLVAACSAWLCPGLRLPGSLAG [AUH] | 2.55 ± 1.2 | 3.26 ± 0.84 | – | – |
| MDRFDCQYLMATFVHVYITSFIRG [CDS1] | 3.01 ± 0.56 | 3.67 ± 0.73 | – | – |
| GRHAQTVETLLRHGAHINLQSLKF [RIPK4] | 2.34 ± 0.14 | 2.65 ± 0.45 | – | – |
| DKNRCELLSFLLLMDYIGINLATM [EDNRA] | 2.77 ± 0.49 | 2.92 ± 0.32 | – | – |
| LDVERWLKPAMTQAQDEVEQERRL [FCHSD1] | 4.98 ± 0.16 | 5.11 ± 0.19 | – | – |
| EVLLASLANPVLESTPVGTVVGLF [PCDHGC5] | 2.53 ± 0.51 | 2.33 ± 0.43 | – | – |
| EKYGAVREVILKELAEATWCGIST [ZBED1] | 2.97 ± 0.36 | 2.68 ± 0.35 | – | – |
| YPGIRAGRKNAAPLTIRPPTDWE [TRIM39] | – | – | 3.44 ± 0.31 | 3.9 ± 0.36 |
| AIILSSCLLGLGSLVLILSLSYTV [SLC2A12] | 3.06 ± 0.4 | 3.26 ± 0.097 | – | – |
| TDGRSPRRSRDPGYDHLWDETLSS [PLEKHN1] | 4.33 ± 0.24 | 4.45 ± 0.23 | – | – |
| DFGSAAASGSFPSQVTATSGNGDF [CLINT1] | 4.95 ± 0.17 | 4.69 ± 0.26 | – | – |
| FRPKDQTSVGMSFVAGGISGTVAA [SLC25A39] | 3 ± 0.11 | 2.96 ± 0.29 | – | – |
| WFKTRRKEMTQKLEALHLEALCEE [DENND6A] | 3.29 ± 0.27 | 3.88 ± 0.42 | – | – |
| KVVSRAENLSVPVIGALLRFNQAI [LPCAT4] | 2.15 ± 0.54 | 2.18 ± 0.19 | – | – |
| VSRLTDTTKFTGSHKERFDPSGKG [TPPP] | 4.39 ± 0.1 | 4.5 ± 0.22 | – | – |
| LQDIKTAGPQSQVLCGVVMDRSLV [ADD1] | 2.98 ± 0.22 | 2.91 ± 0.19 | – | – |
